Results published in paper PMC9073318 (Plant Communications, 2022).
Substitutions are numbered along the chain they refer to. In names and notes the source's numbering stands.

T1: TaPAPhy_b2 (Triticum aestivum, UniProt F6MIW5)
T1 sequence (F6MIW5 21-530): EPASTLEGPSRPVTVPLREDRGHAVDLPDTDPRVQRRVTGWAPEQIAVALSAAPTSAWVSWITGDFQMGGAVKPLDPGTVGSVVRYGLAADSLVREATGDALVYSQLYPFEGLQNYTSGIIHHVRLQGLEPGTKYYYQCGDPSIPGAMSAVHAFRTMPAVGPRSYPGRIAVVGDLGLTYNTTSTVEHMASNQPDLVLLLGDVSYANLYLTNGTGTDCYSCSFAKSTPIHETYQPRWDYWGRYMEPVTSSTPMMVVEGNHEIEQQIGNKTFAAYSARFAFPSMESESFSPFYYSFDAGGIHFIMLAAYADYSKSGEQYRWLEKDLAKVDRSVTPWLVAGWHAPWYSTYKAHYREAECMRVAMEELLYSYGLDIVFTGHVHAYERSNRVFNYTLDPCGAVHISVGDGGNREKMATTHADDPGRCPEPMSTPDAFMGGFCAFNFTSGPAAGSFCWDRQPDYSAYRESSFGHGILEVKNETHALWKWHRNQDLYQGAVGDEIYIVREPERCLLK

B1: TaPAPhy_b2 (Triticum aestivum) (protein)
chain: T1 sequence (F6MIW5 21-530)
B2: TaPAPhy_b2 (Triticum aestivum; K430A) (protein)
chain: T1 sequence (F6MIW5 21-530) with K410A
B3: TaPAPhy_b2 (Triticum aestivum; K368A) (protein)
chain: T1 sequence (F6MIW5 21-530) with K348A

Experiments:
TaPAPhy_b2 [1] = molecular target: T1, TaPAPhy_b2; design: gene TRAES_3BF026700100CFD_c1; conditions: deglycosylated enzyme; product-bound state 1.42 A; bound to both irons (second structure, substrate-bound state, 1.54 A: 6GIZ)
TaPAPhy_b2 [2] = molecular target: T1, TaPAPhy_b2; assay: X-ray crystal structure of soaked crystal; type: binding; design: gene TRAES_3BF026700100CFD_c1; signal peptide (20 aa) and C-terminal 7-aa ER-retention signal removed; alpha-factor secretion signal, C-terminal 6xHis; Pichia pastoris KM71H (OCH1::G418R); 510 residues, Fe-Fe centre; glycosylated for assays, Endo F1 deglycosylated for crystals; conditions: 5 mM InsS6 soak, pH 5.5; deglycosylated enzyme; site adjacent to active centre (standby mode), phosphate at catalytic centre
purified protein = substrate: O=P(O)(O)O[C@H]1[C@H](OP(=O)(O)O)[C@@H](OP(=O)(O)O)[C@H](OP(=O)(O)O)[C@@H](OP(=O)(O)O)[C@H]1OP(=O)(O)O; assay: purified protein; conditions: 0.2 M acetate pH 5.5, glycosylated enzyme

Molecule	X-ray crystal structure (TaPAPhy_b2 [1])	X-ray crystal structure of soaked crystal (TaPAPhy_b2 [2])	Km (purified protein)	kcat (purified protein)
O=P(O)(O)O [phosphate]	A phosphate ion is bound to the two metal ions			
O=S(=O)(O)O[C@H]1[C@H](OS(=O)(=O)O)[C@@H](OS(=O)(=O)O)[C@H](OS(=O)(=O)O)[C@@H](OS(=O)(=O)O)[C@H]1OS(=O)(=O)O [InsS6, myo-inositol hexakissulfate]		it binds at a site immediately adjacent to the active center		
B1			76.4 ± 7.7 µM	23.8 ± 0.9 s⁻¹
B2			307.6 ± 56.7 µM	3.1 ± 0.3 s⁻¹
B3			214.6 ± 46.6 µM	28.4 ± 3.0 s⁻¹
